Test results published in PMC10345191.

What was measured:
Assay in all cases: cryo-EM structure
[1] = molecular target: EDC cross-linked ConM SOSIP soluble gp140 Env trimer (GMP) (HIV-1 (group M consensus))
[2] = molecular target: EDC cross-linked ConSOSL.UFO soluble gp140 Env trimer (GMP) (HIV-1 (group M consensus))
[3] = molecular target: ConM SOSIP soluble gp140 Env trimer, unmodified (GMP) (HIV-1 (group M consensus))
[4] = molecular target: ConSOSL.UFO soluble gp140 Env trimer, unmodified (GMP) (HIV-1 (group M consensus))

**Q.** How did the stoichiometry N [1] turn out when “EDC cross-linked ConM SOSIP soluble gp140 Env trimer (GMP) (complex)” was run?
**A.** 3

**Q.** “EDC cross-linked ConSOSL.UFO soluble gp140 Env trimer (GMP) (complex)” was tested. Which stoichiometry N [2] did it give?
**A.** 3

**Q.** How did the stoichiometry N [3] turn out when “ConM SOSIP soluble gp140 Env trimer, unmodified (GMP) (complex)” was run?
**A.** 3

**Q.** Which stoichiometry N [4] does the source give for “ConSOSL.UFO soluble gp140 Env trimer, unmodified (GMP) (complex)” here?
**A.** 3
